# In the RNAGym collection of RNA variant scans (doi:10.7554/elife.80360):
# B1: HDV Ribozyme (parent)
# chain: GGCCGGCAUGGUCCCAGCCUCCUCGCUGGCGCCGGCUGGGCAACAUUCCGAGGGGACCGUCCCCUCGGUAAUGGCGAAUGGGACCCA
# Variants of: B1
# Assay: self-cleavage, relative activity (ratio to wild type); higher = more cleavage; co-transcriptional
row,Variant,self-cleavage
1,G52C C66A,1.03
2,A51U G82A,0.543
3,A51U G82U,0.373
4,G52C A87G,0.985
5,G54U U60G,0.989
6,A51U U69C,1.26
7,G53C A56G,0.962
8,G52C A70U,0.782
9,G53U C85A,0.931
10,G55C C57G,1.14
11,G52C U72C,0.332
12,G53U A71C,0.538
13,G54A G76C,1.04
14,G52U U79G,0.521
15,G52U U79C,0.59
16,G52C C62A,0.878
17,G54U G55A,1.01
18,A51U A71C,0.856
19,G54C C61G,1.16
20,A51U C57G,1.04
21,G52A G82C,0.362
22,G52A G82A,0.439
23,G54A A87U,0.922
24,G52U A78G,0.514

row,Variant,self-cleavage
1,G53A A71C,0.623
2,G55A G81A,0.535
3,G53U G67U,0.715
4,G53A U79A,0.814
5,A51U A87U,1.03
6,G52U G54U,0.784
7,G52U G54A,0.653
8,G54C G73U,0.205
9,G54C U60A,1.08
10,G54C U60C,1.22
11,G53C G76U,0.967
12,G53C C63U,0.997
13,G54U U65A,0.513
14,G55C A56G,1.15
15,G52A G76U,0.983
16,G52C G80C,0.326
17,A51U A56U,1.25
18,G53U G68U,0.703
19,G53A A78C,0.104
20,G53U U60G,0.972
21,A51U C58A,1.04
22,A51U C58G,0.997
23,G53U G76U,0.939
24,G54C G68A,0.858

row,Variant,self-cleavage
1,G52C G67C,0.446
2,G53U G55U,0.915
3,G53U C63A,1.2
4,A51G G55U,1.06
5,G53A G59A,0.851
6,G53A A87C,1.1
7,G53A A87U,0.992
8,G52U A83U,0.494
9,G52U A83C,0.259
10,G52U C58G,0.95
11,G52U C58A,0.888
12,G54A A71C,0.753
13,G54A A71G,0.959
14,G52U C85A,0.784
15,G52U G82C,0.194
16,G52U G76A,0.936
17,G55A U79A,0.582
18,G55A U79G,0.85
19,A51U C85A,0.956
20,G54U G74C,0.182
21,A51U G76U,1.11
22,A51U G76C,1.23
23,A51U G76A,0.961
24,A51G G76C,0.831

row,Variant,self-cleavage
1,A51G G76A,0.91
2,G53U C75U,0.277
3,G54C G80A,0.362
4,A51U U60G,1.04
5,A51U U60C,0.594
6,G53C C57U,0.969
7,G53C C57G,1.14
8,A51G U72G,0.615
9,A51G U72C,0.864
10,G54C C64A,0.574
11,G52A C84A,0.736
12,G54U,0.98
13,G54A,0.961
14,G54C,0.98
15,G55C A70G,0.848
16,G52U A87C,0.95
17,G54A G55C,1.04
18,G53A C64G,0.769
19,G53A G67A,1.02
20,G53A G67C,1.04
21,G54A G82U,0.205
22,G53A C66U,1.05
23,G53A C66G,0.908
24,A51U U72C,0.608

row,Variant,self-cleavage
1,A51U U72A,0.628
2,G52U U65G,0.767
3,G52A A83C,0.374
4,G53U G82A,0.496
5,G53A U72A,0.642
6,A51U G80C,0.208
7,A51U A78U,0.282
8,G52A A70G,1.02
9,G52U G55C,0.961
10,G53C A83U,0.332
11,G53C A83G,0.815
12,G54C C62G,0.855
13,G52A C58A,1.14
14,G55A U65C,0.863
15,G55A U65A,1.06
16,G52A C61G,0.897
17,A51G U60G,0.867
18,G52C G81A,0.563
19,G53A C62A,1.05
20,G53A C62G,0.511
21,G53C G68U,0.475
22,G53C G68A,0.577
23,G52C G73A,0.627
24,G55C C61G,0.959

row,Variant,self-cleavage
1,A51U C84A,0.916
2,G54A G67A,0.698
3,G53A G74A,0.554
4,G52C U65A,0.939
5,G52C U65C,1.18
6,G53C C64A,0.724
7,G53C C64U,0.703
8,G52A G68C,0.436
9,G52A G68U,0.591
10,G53A C85A,0.933
11,G52U G74U,0.629
12,G52U G74A,0.402
13,G54U C64U,0.905
14,G54U C64A,0.486
15,G54C G76C,0.981
16,G54C G76U,1.11
17,G55A A70U,0.831
18,G55A A70C,1.06
19,G52A U60C,1.08
20,G52C C85U,1.09
21,A51G G82C,0.322
22,A51G G82U,0.203
23,A51G G82A,0.125
24,G53C A87G,0.971

row,Variant,self-cleavage
1,G54U G73A,0.776
2,G54A U69A,0.982
3,G54A U69C,0.95
4,G53C G80U,0.293
5,G53C G80A,0.307
6,G53C G80C,0.0755
7,G53C U79C,0.47
8,G54U C58A,1.07
9,G54U C58G,0.997
10,G53C U60C,1
11,A51G U65G,0.682
12,A51G U65A,0.7
13,G52C G54C,0.564
14,G55A G74A,0.457
15,G53C C61A,1.04
16,G54C A83C,0.332
17,G52U C75U,0.115
18,G54C C58U,1.11
19,G54U A78C,0.158
20,G54A C64G,0.657
21,G53U A56C,0.831
22,G53A G80A,0.218
23,G52A U69G,0.955
24,G53A C84A,0.888

row,Variant,self-cleavage
1,G55C C66U,0.983
2,G55C C66G,1.2
3,A51U C63G,0.208
4,G55C C58G,1.11
5,G52A A78G,0.604
6,A51U A70U,0.849
7,A51U A70G,0.972
8,A51U A70C,0.886
9,G55A G67A,0.997
10,A51U A77G,0.615
11,G55C C75A,0.148
12,G55A C64G,0.962
13,G55A C64A,0.95
14,G54A A78G,0.332
15,G54A A78C,0.247
16,G54U C57A,0.997
17,G54U C57U,0.993
18,G52A G67U,0.843
19,G52A G73U,0.338
20,G52A C63A,0.774
21,G52A G55U,0.934
22,G53A G68U,0.807
23,G53A G68A,0.743
24,G53A G68C,0.604

row,Variant,self-cleavage
1,G52C U69C,0.943
2,G52A G53U,0.773
3,G54C U69G,1.07
4,G55C C64A,0.855
5,G52U C63G,0.277
6,G53A A70C,1.06
7,G53A A70U,1.02
8,G53U C86A,1.07
9,G54A G81U,0.229
10,G53A G54A,0.896
11,G52A G81C,0.259
12,G55A G76C,1.09
13,G55A G76A,1
14,G55A G76U,0.918
15,G55A C58G,0.941
16,G53U C64U,0.853
17,G53A G81C,0.266
18,A51U G81A,0.601
19,G52U A71C,0.745
20,A51U C66A,0.764
21,G53A U65A,0.884
22,G53C A71U,1.1
23,G54A A56G,0.991
24,G54A U79G,0.643

row,Variant,self-cleavage
1,G54A U79C,0.411
2,A51G U79C,0.354
3,G53A A56C,0.787
4,G53A A56G,0.875
5,G55A C66G,0.843
6,A51U G59U,1.02
7,A51U G59C,0.755
8,A51U G59A,0.889
9,G54C A87G,0.936
10,G53U U65A,0.69
11,G54U A70G,1.03
12,G52C G53U,0.782
13,G52C G68C,0.369
14,G52C G68A,0.564
15,G52C C84A,0.791
16,G52U C57A,0.903
17,G52U G68A,0.517
18,G53A G82A,0.466
19,G54C G59U,1.15
20,G54C U79C,0.482
21,G53C A77U,0.639
22,G52U A77C,0.54
23,G54U G67A,1.01
24,G55A G73C,0.658

row,Variant,self-cleavage
1,G55A G73U,0.457
2,G53U G81C,0.385
3,G52A C66A,1.09
4,A51G G81U,0.356
5,A51U G55A,1.17
6,A51U G55C,1.01
7,G53C C86U,0.799
8,G55C C63G,0.888
9,G52A A56U,1.1
10,G52U C64G,0.902
11,G52U C64U,0.881
12,G53C C58G,1
13,G52A C62U,1.12
14,G52A C62A,0.732
15,G54A U60A,0.758
16,G54A U60C,1.06
17,G53U C84U,0.821
18,G55C A83U,0.575
19,G55C A83C,0.314
20,G55A G68A,0.831
21,G52A U79G,0.718
22,G52A U79A,0.95
23,G55A C62G,0.686
24,G55A G82C,0.356

row,Variant,self-cleavage
1,G55A G82A,0.324
2,G52U C86G,1.01
3,G52A A77U,0.694
4,G55A A56G,0.882
5,G54U A83U,0.446
6,A51G G74C,0.148
7,A51G G59U,1.1
8,A51G G59C,0.895
9,G55A C75G,0.136
10,G55A C75U,0.208
11,G52U G81A,0.356
12,G52C C58G,1.13
13,G54A C61A,1.07
14,G54U G82A,0.277
15,G54C A71G,0.646
16,G54C A71C,0.608
17,G53C C85U,0.808
18,G52U G67C,0.295
19,G54U C85U,1.02
20,G54U C85A,0.964
21,G54C G74C,0.198
22,G54C G74A,0.314
23,G52U C62A,0.822
24,G52U C62G,0.106

row,Variant,self-cleavage
1,G55C C62G,1.06
2,G54U U69G,1.03
3,G54U U69A,0.899
4,G52C C75U,0.134
5,G52U G59U,0.984
6,G52U G59A,0.982
7,G52U C61G,0.927
8,G52U A70G,0.878
9,A51U G74C,0.243
10,A51U G74U,0.369
11,G53C G54A,1.08
12,G53A G73C,0.265
13,G53A G73A,0.44
14,G53A G73U,0.304
15,A51U G54U,1.02
16,G54A A70G,0.79
17,G52C C86A,0.997
18,G52C C86U,1.2
19,G53C C84G,0.696
20,G53C C84A,0.76
21,G52A C64A,0.786
22,G52U G53A,0.849
23,G53U A83C,0.6
24,G53U A83G,0.739

row,Variant,self-cleavage
1,G55A G80U,0.13
2,G52A C57G,1.01
3,G52A C57U,1.06
4,G54C C63A,1.02
5,G53U A70C,0.774
6,A51U G67C,0.78
7,G54C U72A,0.702
8,G54C U72C,0.69
9,G54C A77G,0.831
10,G52A A87G,0.86
11,G53C A78C,0.0678
12,G54U C62G,1.08
13,G54U C62U,0.98
14,G52C C61U,0.963
15,G52U A56U,0.787
16,G52U A56G,0.816
17,G52A G54C,0.842
18,G53A G76C,1.08
19,G54A U65C,0.696
20,G53A C75A,0.225
21,G53A C75U,0.256
22,G55A A83G,0.919
